The numbers were not newly measured in patent US20090215646A1, “SYSTEM AND METHOD OF ANALYTE DETECTION USING DIFFERENTIAL RECEPTORS” (The Board of Regents of the University of Texas Sy, priority 2005, published 2009), which cites them from elsewhere.

The chains are these.
B1: Ovalbumin: glycoprotein analyte obtained commercially (protein, UniProt P01012 2-386, looked up)
Ovalbumin: GSIGAASMEFCFDVFKELKVHHANENIFYCPIAIMSALAMVYLGAKDSTRTQINKVVRFDKLPGFGDSIEAQCGTSVNVHSSLRDILNQITKPNDVYSFSLASRLYAEERYPILPEYLQCVKELYRGGLEPINFQTAADQARELINSWVESQTNGIIRNVLQPSSVDSQTAMVLVNAIVFKGLWEKAFKDEDTQAMPFRVTEQESKPVQMMYQIGLFRVASMASEKMKILELPFASGTMSMLVLLPDEVSGLEQLESIINFEKLTEWTSSNVMEERKIKVYLPRMKMEEKYNLTSVLMAMGITDVFSSSANLSGISSAESLKISQAVHAAHAEINEAGREVVGSAEAGVDAASVSEEFRADHPFLFCIKHIATNAVLFFGRCVSP

The conditions of this data set: isoelectric point.
In the case of “Fetuin: glycoprotein analyte obtained commercially”, the pI is 4.5-4.9.

Turning to “Lysozyme: protein analyte obtained commercially”, the pI is 9.6-11.

As to B1, the pI is recorded as 4.6.
